Laboratory results from patent US20190284243A1 (UNIVERSITY OF COPENHAGEN, published 2019).
Ends that are not written are not given here. PEGA1900 = not defined here

B1: hexapeptide HRMVRG (SEQ ID NO: 4) (peptide)
peptide: HRMVRG-PEGA1900
modifications: reading uncertain
notes: also called HRMVRG-PEGA1900; hexapeptide partner
B2: β-body KTGTQNLTGPGRTHTQTATEG (SEQ ID NO: 3) (peptide)
peptide: KTGTQNLTGPGRTHTQTATEG
notes: Found from a one-bead-one-compound library K(TX)4PG(XT)4EG
B3: β-body (3) TFTFTFPGLTRTHT (SEQ ID NO: 59) (designed binder)
peptide: TFTFTFPGLTRTHT
modifications: also: with a fluorescent probe, place not given here
notes: The text calls it a modified version of (2); also called fluorescent-(3)

How the values were obtained:
[1] = molecular target: T1, Enhanced Green Fluorescent Protein (UniProt P42212 1-238 = GFP); test: green fluorescence on HRMVRG-PEGA1900 beads
T1 construct: treated as one molecule; also called EGFP; eGFP

[2] = molecular target: B1; test: pairs of beads of two libraries adhering to each other, identified by MSMS
Procedure: This example illustrates how to identify a β-body recognizing a linear peptide. A split-mix library of 21.000.000 β-bodies according to the invention were prepared by combinatorial synthesis as described in Example 4 above. This was performed on 100 μm beads with no fluorescence. A second split mix library of 470.000 hexapeptides were prepared in a similar manner except that this library was prepared on larger 400 μm beads with fluorescence label attached to some functional groups. The two libraries were mixed and pairs of beads adhering to each other in pairs with one large fluorescent and one small non-fluorescent bead were collected and the two peptides were identified by MSMS. […] EGFP is an abbreviation of Enhanced Green Fluorescent Protein.

[3] = molecular target: T2, β-body (2) TTYTYPGDTFTI (SEQ ID NO: 58) (with a fluorescent probe (2-F*) or on beads, by assay); test: fluorescent β-body on beads modified with (2)
T2 construct: the assay field says which was which; also called 2-F*; bead-(2)
T2 peptide: TTYTYPGDTFTI

B1: no binding [1].

B2: binds [2].

For B3, the “fold reduction of binding against fluorescent-(1)” value [3] was 7 fold.
